The values below come from the supplement of paper PMC10567573.

This data set can be described thus: protein stability index of a GFP-peptide fusion (GPS, HEK-293T) (PSI 1-6); higher = more stable.
Setting [1] is: treatment: DMSO, c terminus: a fixed tail appended.
Setting [2] is: treatment: MLN4924 1 uM, 8 h, c terminus: a fixed tail appended.

± gives the standard deviation.
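Further: 24-mer peptide tiles fused after GFP, lentivirally expressed, FACS-sorted into six equal bins by GFP/DsRed ratio, decoded by Illumina sequencing, PSI is the read-weighted mean bin number.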

For the sequence LQGVPERLLGTAGTEEKKKLIRDF [VTI1B], the protein stability index by setting is: under setting [1], 4.25 ± 0.44; under setting [2], 4.63 ± 0.2.
With KGSPDVSASSDEPYARIQQSRRQC [SMIM2], the protein stability index amounted to 4.74 ± 0.18 under setting [1] and 5.02 ± 0.2 under setting [2].
On to KTKAPAPDEGSDLFYDDYYEDGEV [CDC34], for which the protein stability index reads like this: under setting [1], 5.35 ± 0.31; under setting [2], 5.38 ± 0.29.
Turning to LGVAQRSLPLQDELAFAEDLVLDE [ESRRA], the protein stability index under setting [1] was found to be 3.38 ± 0.65 and the protein stability index under setting [2] amounted to 3.93 ± 0.71.
For the sequence AVDFTQEEWGQLDPTQRILYRDVM [ZNF8], the protein stability index runs as follows: under setting [1], 3.75 ± 0.18; under setting [2], 3.88 ± 0.35.
Take HPYSTTFQESASTPETRAKFTQDN [TEKT4]: the protein stability index turned out to be 4.54 ± 0.13 under setting [1] and 4.67 ± 0.31 under setting [2].
RLDGCIYAIKRSKKPLAGSVDEQN [WEE1]: the protein stability index under setting [1] stood at 3.54 ± 0.28 and the protein stability index under setting [2] was 3.73 ± 0.22.
For MWLLVSVILISRISSVGGEAMFCD [CFHR2], the protein stability index is, setting by setting: under setting [1], 3.35 ± 0.25; under setting [2], 3.08 ± 0.52.
Taken in the same sequence, the figures for ILKNLSQVAMRCRCSSMHFLVAEW [SAT1] were 2.4 ± 0.2 and 2.65 ± 0.31.
As to PNRQLWIELAPLSMPRINHGVLSA [GAN], the protein stability index reads like this: under setting [1], 2.17 ± 0.47; under setting [2], 2.19 ± 0.13.
Sequence PLAMNYLDRFLSLEPVKKSRLQLL [CCND1] had a protein stability index under setting [1] of 2.23 ± 0.12 and a protein stability index under setting [2] of 2.27 ± 0.14.
For KGKLFTWNILKTIALGQMLSLCIC [SLC35F2], in that order: 2.62 ± 0.89 and 2.57 ± 0.57.
For WELHSLRHCDDDGRTENGALAPKQ [ZNF24], in that order: 4.91 ± 0.16 and 4.95 ± 0.19.
Take WALGCVLYELASLKRAFEAANLPA [NEK8]: the protein stability index turned out to be 2.99 ± 0.3 under setting [1] and 2.9 ± 0.46 under setting [2].
ITSSIPDTERLDDFHLSIHSDMAA [DVL3]: the protein stability index is, setting by setting: under setting [1], 4.08 ± 0.22; under setting [2], 4.3 ± 0.17.
Regarding QIMFDVEMHTSRDHSSQSEEEVVE [BNIP3L], the protein stability index under setting [1] came to 5.33 ± 0.063 and the protein stability index under setting [2] turned out to be 5.37 ± 0.22.
For SSVSPAVSKASSRRSSFSMEEES [TFE3], the protein stability index by setting is: (treatment: DMSO, c terminus: native) 5.44 ± 0.14; (treatment: MLN4924 1 uM, 8 h, c terminus: native) 5.28 ± 0.17.
As to LYLVGFLDLFGVSMVVPLLSLHVK [MFSD9], the protein stability index runs as follows: under setting [1], 3.61 ± 0.17; under setting [2], 3.19 ± 0.33.
Regarding EEAAMQKCLVTEAQTLLRLSGVQR [RSAD1], the protein stability index runs as follows: under setting [1], 3.51 ± 0.15; under setting [2], 3.52 ± 0.35.
STFYPPYHSPELTTPPGHGTLDNS [NEUROD6] had a protein stability index under setting [1] of 4.27 ± 0.091 and a protein stability index under setting [2] of 4.21 ± 0.22.
Turning to GLPGKVFACLSVLFVTVTAVNLSV [KCNG1], the protein stability index was 3.36 ± 0.17 under setting [1] and 3.053 ± 0.022 under setting [2].
The sequence GIENEEDTSKQKKMETMYPFIVTL [ZNF449] showed a protein stability index under setting [1] of 2.39 ± 0.38 and a protein stability index under setting [2] of 2.36 ± 0.1.
For the sequence GPLGDCLRDWEDLQQDFQNIQETH [TMEM120A], the protein stability index reads like this: under setting [1], 4.63 ± 0.31; under setting [2], 4.41 ± 0.32.
For TVLAVLEDSSRDIREALHELLCCT [INTS4], in that order: 2.43 ± 0.54 and 2.29 ± 0.26.
In the case of FLLVQRFGELMRKLWNPRNFKAHV [USP39], the protein stability index is, setting by setting: under setting [1], 2.47 ± 0.51; under setting [2], 2.54 ± 0.7.
SPTSRPPWAVDPAFAERYAPDKTS [PDLIM7] returned a protein stability index under setting [1] of 4.63 ± 0.21 and a protein stability index under setting [2] of 4.7 ± 0.31.
Taken in the same sequence, the figures for SSRYDDYSSSRDGYGGSRDSYSSS [RBMX] were 4.37 ± 0.25 and 4.52 ± 0.19.
For YGEFYKSLTNDWEDHLAVKHFSVE [HSP90AB1], in that order: 2.46 ± 0.31 and 2.87 ± 0.28.
EKNIILEEKIQVLQQQNEDLKARI [MTUS2]: the protein stability index stood at 4.03 ± 0.24 under setting [1] and 4.04 ± 0.23 under setting [2].
In turn, DSDNSGGGGGGGGGGGGGGGTSSN [ANKRD17] showed a protein stability index under setting [1] of 5.39 ± 0.31 and a protein stability index under setting [2] of 5.58 ± 0.22.
As to DGIDRWIKEIDEHAPGVPRILVGN [RAB40C], the protein stability index runs as follows: under setting [1], 3.81 ± 0.19; under setting [2], 3.59 ± 0.26.
Taken in the same sequence, the figures for KNGRVDSEDRRSRHCPYLDTINRS [USP39] were 3.99 ± 0.26 and 4.2 ± 0.34.
As to PSVADNLLASSDAALSASMASLLE [SERTAD1], the protein stability index was 4.51 ± 0.18 under setting [1] and 4.39 ± 0.15 under setting [2].
Turning to GSSSFSLKGYPSLMRSQSPKAQPQ [TRIM29], the protein stability index was found to be 3.76 ± 0.26 under setting [1] and 3.73 ± 0.28 under setting [2].
LSALDSKANNLSSLSKKYRQDAKY [SEC22B]: the protein stability index stood at 3.87 ± 0.19 under setting [1] and 3.98 ± 0.3 under setting [2].
Take RHGGLSLVQTTDFFYPLVEDPYMM [SEPHS2]: the protein stability index by setting is: under setting [1], 2.3 ± 0.25; under setting [2], 2.24 ± 0.28.
With DWASNKVMFKIGDLGHVTRISSPQ [WEE1], the protein stability index reads like this: under setting [1], 2.53 ± 0.25; under setting [2], 2.64 ± 0.41.
For LSLFIPESPRWLYSQGRLSEAEEA [SLC22A15], in that order: 3.19 ± 0.35 and 3.44 ± 0.35.
Taken in the same sequence, the figures for FGVKYNPYTRSIQILKDTKSITSA [TPH1] were 2.43 ± 0.63 and 2.46 ± 0.11.
GEEQVELSTIEELIKDAIVSTQPA [C2CD2L]: the protein stability index was found to be 4.69 ± 0.3 under setting [1] and 4.7 ± 0.16 under setting [2].
In the case of TMARALGRFKLSIPHTHLLATLDP [WDR88], the protein stability index came to 2.19 ± 0.27 under setting [1] and 2.21 ± 0.18 under setting [2].
Regarding NSDPEVVNVDNLLAAAVVQEHSNS [C18orf25], the protein stability index by setting is: under setting [1], 5.19 ± 0.35; under setting [2], 5.33 ± 0.2.
The sequence EKALQVLVDQSKKANSPLKGHERT [VPS39] returned a protein stability index under setting [1] of 4.06 ± 0.21 and a protein stability index under setting [2] of 4.48 ± 0.26.
DAVPPGMESLISAPLVKTLEKEEE [CDC25B] registered a protein stability index under setting [1] of 5.44 ± 0.21 and a protein stability index under setting [2] of 5.58 ± 0.33.
Consider KNHEEEMLALRGQTGGDVNVEMDA [KRT16], for which the protein stability index runs as follows: under setting [1], 5.46 ± 0.17; under setting [2], 5.6 ± 0.22.
For the sequence AQNREPESVEQLESRIVEQENAIQ [SNX8], the protein stability index by setting is: under setting [1], 5.54 ± 0.063; under setting [2], 5.52 ± 0.19.
Regarding VPYCERDYEKMFGTKCHGCDFKID [PDLIM7], the protein stability index by setting is: under setting [1], 3.2 ± 0.55; under setting [2], 3.46 ± 0.22.
Consider GCSSTQGNGRPGRPSQYRPDGLRS [LCOR], for which the protein stability index was 4.07 ± 0.085 under setting [1] and 4.14 ± 0.17 under setting [2].
Consider LIRGSTFAKAKPEIPWTSLTRKGL [PHTF1], for which the protein stability index is 2.25 ± 0.17 under setting [1] and 2.41 ± 0.31 under setting [2].
With SSMFSGSWKESSMNIIELEIPDQN [GMCL1], the protein stability index by setting is: under setting [1], 3.53 ± 0.29; under setting [2], 3.67 ± 0.5.
EPVLTQTSEQAPSSAPRDVQARML [PTPRD]: the protein stability index is 5.13 ± 0.26 under setting [1] and 5.31 ± 0.26 under setting [2].
For ARQEGLTFFGTELAPVRQQELASL [PBXIP1], the protein stability index under setting [1] came out at 3.56 ± 0.22 and the protein stability index under setting [2] turned out to be 3.69 ± 0.48.
On to ARSGHRCVADNTNLYVFGGYNPDY [KLHDC10], for which the protein stability index turned out to be 2.23 ± 0.22 under setting [1] and 2.3 ± 0.36 under setting [2].
With DPEVLEAVGDRQDGLREQLQAPVP [PBXIP1], the protein stability index was found to be 5.43 ± 0.27 under setting [1] and 5.4 ± 0.24 under setting [2].
Taken in the same sequence, the figures for QELASLLRTYLARLPWAGQLTKEL [PBXIP1] were 2.95 ± 0.59 and 2.72 ± 0.7.
Taken in the same sequence, the figures for RLPFLSSSNLSLDVLRGNDETIGF [POMP] were 3.02 ± 0.42 and 3 ± 0.27.
For EKESTELRAEEIETRVTSGSMEAL [PPFIA4], the protein stability index reads like this: under setting [1], 5.53 ± 0.17; under setting [2], 5.45 ± 0.27.
With GGQEEASQEAGLPAGAGPSPTFPA [SEPHS2], the protein stability index was 5.56 ± 0.1 under setting [1] and 5.25 ± 0.23 under setting [2].
As to VRDQGPSIPLTPGDTPIRKKEELL [FBF1], the protein stability index reads like this: under setting [1], 5.26 ± 0.21; under setting [2], 5.33 ± 0.12.
As for GHSSSVEMFLYFEDHGLVTCSADH [WDR41], the protein stability index was determined as 2.16 ± 0.34 under setting [1] and 2.25 ± 0.29 under setting [2].
Regarding HQYWPAERSARYQYFVVDPMAEYN [PTPRD], the protein stability index by setting is: under setting [1], 2.4 ± 0.19; under setting [2], 2.51 ± 0.32.
For EFLLDLGHHERSIMTDLYYLSQTD [FUT8], the protein stability index is, setting by setting: under setting [1], 2.2 ± 0.36; under setting [2], 2.47 ± 0.16.
For the sequence VSKVTGWCRDRLLGHREPSAHPVE [TMEM175], the protein stability index came out at 3.21 ± 0.22 under setting [1] and 3.33 ± 0.099 under setting [2].
Regarding LALALKKCKPSLPAEAEGAAQELE [TMEM120A], the protein stability index reads like this: under setting [1], 4.39 ± 0.18; under setting [2], 4.46 ± 0.19.
Regarding SKRMGPMTVVRMDASVQPGPFRTL [RHOBTB1], the protein stability index reads like this: under setting [1], 2.76 ± 0.14; under setting [2], 2.91 ± 0.48.
RTVAVGDIVWGKIHGFPWWPARVL [PWWP2B]: the protein stability index reads like this: under setting [1], 2.02 ± 0.47; under setting [2], 2.17 ± 0.23.
In the case of YLDVDLTLTREQTERLSHQITSRV [RTN2], the protein stability index worked out at 3.17 ± 0.18 under setting [1] and 3.23 ± 0.34 under setting [2].
Taken in the same sequence, the figures for MADQDPAGISPLQQMVASGTGAVV [SLC25A39] were 4.52 ± 0.22 and 4.42 ± 0.13.
Regarding GRGSLSSGGQTSWDSGCLAPPSTR [PLEKHN1], the protein stability index is, setting by setting: under setting [1], 4.44 ± 0.24; under setting [2], 4.15 ± 0.35.
With VKVLAFTSIGDGPLSSDIQVITQT [PTPRD], the protein stability index was 2.62 ± 0.48 under setting [1] and 2.31 ± 0.37 under setting [2].
Regarding LTAFICFLVFILNAGLVWFFPWRE [MFSD9], the protein stability index reads like this: under setting [1], 2.23 ± 0.42; under setting [2], 2.11 ± 0.51.
Consider TFQSSVLRVGIPENAPIGTLLLRL [PCDHGC5], for which the protein stability index runs as follows: under setting [1], 2.23 ± 0.3; under setting [2], 2.16 ± 0.12.
